Measured values as given in US20240218054A1 (MABLOC, published 2024).

B1: ADI-49154 (antibody, V domains shown)
VH: QVQLQESGPGLVKPSGTLSLTCAVSGSSITSSHWWSWVRQPPGKGLAWIGDIYHSGGTTYNPSLKSRVTISVDKSKNQFSLKLSSVTAADTAVYYCARVSVSTSAWYADYWGQGTLVTVSS
VL: QSVLTQPPSVSAAPGQKVTISCSGSSSNIGNNYVSWYQQLPGTAPKLLIYDNNKRPSGIPDRFSGSKSGTSATLGITGLQTGDEANYYCGTWDTSLSTVFGGGTKLTVL
notes: full-length IgG; also called Antibody Number 23
B2: ADI-49030 (antibody, V domains shown)
VH: QVQLVQSGGGLVQPGGSLRLSCAASGFTFSDHYMDWVRQAPGKGLEWVGRTRNKANSYTTEYAASVKGRFTISRDDSKNSLYLQMNSLKTEDTAVYYCAGVGITGTTGIDYWGQGTLVTVSS
VL: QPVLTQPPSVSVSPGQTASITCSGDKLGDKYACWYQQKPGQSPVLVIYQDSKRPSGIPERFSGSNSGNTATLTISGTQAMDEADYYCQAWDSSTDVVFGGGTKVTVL
notes: full-length IgG; also called Antibody Number 151
B3: ADI-42786 (antibody, V domains shown)
VH: EVQLVESGPGLVKPSGTLSLTCAVSGGSISSSYWWSWVRQSPGKGLEWIGEVYHSGSTHYNPSLKSRVTISVDKSKNQFSLKLTSVTAADTAVYYCARDGEGHYYRSGDNWFDRWGQGTLVTVSS
VL: QSVLTQPPSVSAAPGQKVTISCSGSSSNIGSNYVSWYQQFPGTAPKLLIYDNSKRPSGIPDRFSGSMSGTSATLGITGLQTGDEADYYCGTWDSSLSAVVFGGGTKVTVL
notes: full-length IgG; also called Antibody Number 15
B4: ADI-50201 (antibody, V domains shown)
VH: QVQLVESGGGLVKPGGSLRLSCAASGFIFSDYYMNWIRQAPGKGLDWVSTISGSGKSIYYADSVKGRFTISRDNAKNSLYLQMNSLSAEDTAVYYCARVSPLDDGYGYTYYGMDVWGQGTTVTVSS
VL: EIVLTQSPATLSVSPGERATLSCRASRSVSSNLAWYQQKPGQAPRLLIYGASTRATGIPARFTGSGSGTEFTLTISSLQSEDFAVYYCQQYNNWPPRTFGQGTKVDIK
notes: full-length IgG; also called Antibody Number 17
B5: ADI-42124 (antibody, V domains shown)
VH: EVQLLESGGGLVQPGGSLRLSCAASGFTFSSYAMSWVRQAPGKGLELVSAISSSGGSTYYADSVKGRFTISRDNSKNTLYLQMNSLRAEDTALYYCAKDLFYDFWTGITIDYWGQGTLVTVSS
VL: QPVLTQPRSVSGSPGQSVTISCTGTSSDVGGYNYVSWYQQHPGKAPKLMIYDVSKRPSGVPDRFSGSKSGNTASLTISGLQAEDEADYYCCSYAGSYTFVLFGGGTKLTVL
notes: full-length IgG
B6: ADI-50200 (antibody, V domains shown)
VH: EVQLLESGGDLVQPGRSLRLSCAASGFNLIDYAMHWVRQVPGKGLEWVSGISWNSRSIGYADSVKGRFTISRDNAKNSLYLQMDSLKHEDTALFYCAKGAAAGPFPYFYYAMDVWGQGTTVTVSS
VL: DIQVTQSPSSLSASVGDRVTITCRASQGISNNLAWYQQKPGIFPKLLIYAASTLQSGVPSRFSGSGSGTDFILTISSLQPEDVATYYCQKYQSAPPTFGGGTKLEIK
notes: full-length IgG
B7: ADI-49205 (antibody, V domains shown)
VH: EVQLVESGGGVVQTGRSLRLSCAASGFTFSISGMHWVRQAPGKGLEWVALIWYDGTKKYYADSVKGRFTISRDDFKNTVYLQMNSLRADDTAVYYCARIKSDAFDLWGQGTTVTVSS
VL: QSALTQPPSASGSPGQSVTISCTGTSSDVGGFNYVSWYQQHPGRAPKLVIYEVNRRPSGVPDRFSGSKSGYTASLTVSGLQAEDEADYYCFSYAGSNNYVFGTGTKVTVL
notes: full-length IgG; also called Antibody Number 148
B8: ADI-45151 (antibody, V domains shown)
VH: EVQLLESGGGVVQPGKSLRLSCAASGFSFGDYGMHWVRQTPDKGLEWVAVILFDGSKKFYADSVRGRFTISRDNSKNNLYLQMSSLRPEDTAVYYCAKFPLRDGGSGEGFDYWGQGTLVTVSS
VL: DIVMTQTPLSSPVTLGQPASISCRSSQSLVHSDGNTYLSWLQQRPGQPPRFLIYKISNRFSGVPDRFSGGGAGTDFTLKISRVEAEDVGVYYCMQASQFPLTFGGGTKVEIK
notes: full-length IgG; also called Antibody Number 149
B9: ADI-42228 (antibody, V domains shown)
VH: EVQLLESGGGLVQPGRSLRLSCAASGFTFDDYAMHWVRQPPGKGLEWVSGISWNGGGIGYADSVKGRFTISRDNAKNSLYLQMNSLRADDTALYYCAKAENRIGYCSAGSCYLTYFDYWGQGTLVTVSS
VL: QPVLTQPASVSGSPGQSITISCTGTSSDVGGYNYVSWYQQHPGKAPKLLIYDVSNRPSGVSNRFSGSKSANSASLTISGLQAEDEADYYCNSYTSSSTLVFGGGTKLTVL
notes: full-length IgG; also called Antibody Number 19
B10: ADI-42190 (antibody, V domains shown)
VH: QVQLVESGGGLVKPGGSLRLSCAASGFTFSDDYMSWIRQAPGKGLEWVSYISGSGRAMYYADSVQGRFTVSRDNAKNSLFLQMNNLRAEDTAVYYCAKHTGDKPLVWAPSVYGLDVWGQGTTVTVSS
VL: QSVLTQPASVSGSPGQSITISCTGTSSDIGAYNYVSWYQQHPGKAPKLMIYDVTNRPSGVSNRFSGSKSGSSASLTISGLQTEDEADYYCSSYTRRSTLVFGGGTKLTVL
notes: full-length IgG; also called Antibody Number 22
B11: ADI-49194 (antibody, V domains shown)
VH: EVQLVESGGAVVQPGRSLRLSCAASGFTFSSYGMHWVRQAPGKGLESVAVIWYDGSNKNYADSVKGRFTISRDNSKNTLFLQMNSLRAEDSAMYYCAKTYDSRAYYYLDYWGQGTLVTVSS
VL: ETTLTQSPSTLSTSVGDRVTITCRASQSISSWLAWYQQKPGKAPKLLIYRASSLETEVPSRFSGSGSGTDFTLTISRLQPDDFATYFCQQYNRYPYTFGQGTKLEIK
notes: full-length IgG
B12: ADI-50533 (antibody, V domains shown)
VH: QVQLQESGPGLVKPSGTLSLTCAVSGGSISSSNWWSWVRQPPGKGLEWIGEIYHSGSTNYNPSLKSRVTISVDKSKNQFSLKLSSVTAADTAVYYCARVVWYSSSSHLFDYWGQGTLVTVSS
VL: QPVLTQPPSVSAAPGQKVTISCSGSSSNIGNNYVSWYQQLPGTAPKLLIYDNNKRPSGIPDRFSGSKSGTSATLGITGLQTGDEADYYCGTWDSSLSAGKVFGGGTKLTVL
notes: full-length IgG; also called Antibody Number 147
B13: ADI-42210 (antibody, V domains shown)
VH: EVQLLESGPGLVQPSGTLSLTCTASGGSISSSNWWSWVRQPPGKGLEWIGDIYHTGSTSYNPSLKSRVTISVDKSKNQFSLKLSSVTAADTAVYYCARAELSAWYYFDHWGQGTLVTVSS
VL: QSVLTQPPSVSAAPGQKVTISCSGSSSNIGNNYVSWYQQLPGTAPKLLIYDNNKRPSGIPDRFSGSKSGTSATLGITGLQTGDEADYYCGTWDTSLSAGRVFGGGTKLTVL
notes: full-length IgG; also called Antibody Number 16
B14: ADI-42198 (antibody, V domains shown)
VH: EVQLVESGPGLVKPSGTLSLTCAVSGGSISSNKWWSWVRQPPGKGLEWIGEIYHSGSTSYNPSLKSRVSISVDKSKNQFSLKLSSVTAADTAVYYCARVEWAYSSSWWLDYWGQGTLVTVSS
VL: QSVLTQPPSVSAAPGQKVTISCSGSSSNIGNNYVSWYQQLPGTAPKLLIYDNNKRPSGIPDRFSGSKSGTSATLGITGLQTGDEADYICGTWDTSLSAGGVFGGGTKLTVL
notes: full-length IgG; also called Antibody Number 21
B15: ADI-45123 (antibody, V domains shown)
VH: EVQLLESGGGLVQPGGSLRLSCAASGFIFSNYWMSWVRQAPGKGLEWVANIKPDGSEKYYVESVRGRFTISRDNAKNSLYLQMNSLRAEDTAVFYCARDGGTVSDGLDVWGQGTTVTVSS
VL: DIRVTQSPSSLSASVGDRVTISCRASESISIYLNWYQQKPGKAPNLLIYAASSLQRGVPSRFSGSGSGTDFTLTITSLQAEDFATYYCQQTFSIWTFGQGTKVEIK
notes: full-length IgG
B16: ADI-48895 (antibody, V domains shown)
VH: EVQLLESGGGLVKPGGSLRLSCAASGFTFSDYYMSWIRQAPGKGLEWVSYITSSGNTKYYADSVKGRFTISRDNAKNSLYLQISSLRAEDTAVYYCARDWAELTTITNYFYPWGQGTTVTVSS
VL: DIQLTQSPSSVSASVGDRVTITCRASQGISSWLAWYQQKPGKAPKLLIHAASSLQSGVPSRFSGSGSGTDFTLTISSLQPEDFATYYCQQAKSFPPTFGQGTRLEIK
notes: full-length IgG; also called Antibody Number 18

biological target: T1, recombinant YFV E protein (soluble E, sE; YFV Asibi strain) (Yellow fever virus, Asibi strain, UniProt Q6DV88 286-678); experiment: BLI monovalent (IgG on tip)
T1 construct: also called YFV E antigen; YFV E monomer
T1 sequence (Q6DV88 286-678): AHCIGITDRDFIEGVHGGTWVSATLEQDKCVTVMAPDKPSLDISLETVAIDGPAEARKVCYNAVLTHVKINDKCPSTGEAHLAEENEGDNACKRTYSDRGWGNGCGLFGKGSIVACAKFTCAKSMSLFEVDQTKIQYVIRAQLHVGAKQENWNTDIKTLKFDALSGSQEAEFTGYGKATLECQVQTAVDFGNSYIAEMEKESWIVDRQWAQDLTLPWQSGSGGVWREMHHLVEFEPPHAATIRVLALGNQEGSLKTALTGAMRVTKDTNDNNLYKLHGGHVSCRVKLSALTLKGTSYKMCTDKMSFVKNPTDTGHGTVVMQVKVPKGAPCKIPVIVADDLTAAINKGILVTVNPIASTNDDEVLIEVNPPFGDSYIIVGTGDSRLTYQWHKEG

Binder | Kd [nM]
B1 | 141
B2 | 125
B3 | 12.7
B4 | 13.1
B5 | 5.88
B6 | > 100
B7 | 12.9
B8 | > 100
B9 | 8.64
B10 | 13.1
B11 | 234
B12 | > 100
B13 | 18.7
B14 | 33.2
B15 | 2.1
B16 | 4.49
